Assay results: article PMC4386031

Target: ubiquitin (monoUb), P0CG48
Assay: NMR titration; NZF domain added to 15N-labeled monoUb or diUb; BEST-TROSY, chemical shift perturbation; NMR PBS (18 mM Na2HPO4, 7 mM NaH2PO4 pH 7.2, 150 mM NaCl), 298 K

Binder | Kd [µM]
NANKWSCHMCTYLNWPRAIRCTQCLSQRRT (domain or fragment, modifications not checked) [TRABID NZF2] | 1000
RTQHWTCSVCTYENWAKAKRCVVCDHPRPN (domain or fragment, modifications not checked) [TRABID NZF3] | 540
